B1: human synthetic scFv fragment 11 (scFv)
scFv: EVQLLESGGGLVQPGGSLRLSCAASGFTFSSYAMSWVRQAPGKGLEWVSAISGSGGSTYYASVKGRFTISRDNSKNTLYLQMNSLRAEDTAVYYCARYTYYVGGFDYWGQGTLVTVSSGGGGSGGGGSGGGGSDIQMTQSPSSLSASVGDRVTITCRASQSISSYLNWYQQKPGKAPKLLIYAASSLQSGVPSRFSGSGSGTDFTLTISSLQPEDFATYYCQQGFVLSTFGQGTKLEIKR
notes: also called scFv 11
B2: human synthetic scFv fragment 10 (scFv)
scFv: EVQLLESGGGLVQPGGSLRLSCAASGFTFSSYAMSWVRQAPGKGLEWVSAISGSGGSTYYASVKGRFTISRDNSKNTLYLQMNSLRAEDTAVYYCARYSYYYTWLDYWGQGTLVTVSSGGGGSGGGGSGGGGSDIQMTQSPSSLSASVGDRVTITCRASQSISSYLNWYQQKPGKAPKLLIYAASSLQSGVPSRFSGSGSGTDFTLTISSLQPEDFATYYCQQFYPSLHTFGQGTKLEIKR
notes: also called scFv 10
B3: human synthetic scFv fragment 6 (scFv)
scFv: EVQLLESGGGLVQPGGSLRLSCAASGFTFSSYAMSWVRQAPGKGLEWVSAISGSGGSTYYASVKGRFTISRDNSKNTLYLQMNSLRAEDTAVYYCARYVRGYGYGYLDYWGQGTLVTVSSGGGGSGGGGSGGGGSDIQMTQSPSSLSASVGDRVTITCRASQSISSYLNWYQQKPGKAPKLLIYAASSLQSGVPSRFSGSGSGTDFTLTISSLQPEDFATYYCQQAPAYSPFTFGQGTKLEIKR
notes: also called scFv 6
B4: human synthetic scFv fragment 8 (scFv)
scFv: EVQLLESGGGLVQPGGSLRLSCAASGFTFSSYAMSWVRQAPGKGLEWVSAISGSGGSTYYASVKGRFTISRDNSKNTLYLQMNSLRAEDTAVYYCARVFYYGPYYFSYHFDYWGQGTLVTVSSGGGGSGGGGSGGGGSDIQMTQSPSSLSASVGDRVTITCRASQSISSYLNWYQQKPGKAPKLLIYAASSLQSGVPSRFSGSGSGTDFTLTISSLQPEDFATYYCQQDDRGLPTFGQGTKLEIKR
notes: also called scFv 8
B5: human synthetic scFv fragment 12 (scFv)
scFv: EVQLLESGGGLVQPGGSLRLSCAASGFTFSSYAMSWVRQAPGKGLEWVSAISGSGGSTYYASVKGRFTISRDNSKNTLYLQMNSLRAEDTAVYYCARTYYYFYPYGYYFDYWGQGTLVTVSSGGGGSGGGGSGGGGSDIQMTQSPSSLSASVGDRVTITCRASQSISSYLNWYQQKPGKAPKLLIYAASSLQSGVPSRFSGSGSGTDFTLTISSLQPEDFATYYCQQGFYLPTFGQGTKLEIKR
notes: also called scFv 12
B6: human synthetic scFv fragment 2 (scFv)
scFv: EVQLLESGGGLVQPGGSLRLSCAASGFTFSSYAMSWVRQAPGKGLEWVSAISGSGGSTYYASVKGRFTISRDNSKNTLYLQMNSLRAEDTAVYYCARTTSYYGYSAHFIDYWGQGTLVTVSSGGGGSGGGGSGGGGSDIQMTQSPSSLSASVGDRVTITCRASQSISSYLNWYQQKPGKAPKLLIYAASSLQSGVPSRFSGSGSGTDFTLTISSLQPEDFATYYCQQGYGPFTFGQGTKLEIKR
notes: also called scFv 2
B7: human synthetic scFv fragment 5 (scFv)
scFv: EVQLLESGGGLVQPGGSLRLSCAASGFTFSSYAMSWVRQAPGKGLEWVSAISGSGGSTYYASVKGRFTISRDNSKNTLYLQMNSLRAEDTAVYYCARSYSWYSRGPSLDYWGQGTLVTVSSGGGGSGGGGSGGGGSDIQMTQSPSSLSASVGDRVTITCRASQSISSYLNWYQQKPGKAPKLLIYAASSLQSGVPSRFSGSGSGTDFTLTISSLQPEDFATYYCQQAFYAHLLTFGQGTKLEIKR
notes: also called scFv 5
B8: human synthetic scFv fragment 9 (scFv)
scFv: EVQLLESGGGLVQPGGSLRLSCAASGFTFSSYAMSWVRQAPGKGLEWVSAISGSGGSTYYASVKGRFTISRDNSKNTLYLQMNSLRAEDTAVYYCARSHYGSLDYWGQGTLVTVSSGGGGSGGGGSGGGGSDIQMTQSPSSLSASVGDRVTITCRASQSISSYLNWYQQKPGKAPKLLIYAASSLQSGVPSRFSGSGSGTDFTLTISSLQPEDFATYYCQQFSYTLSTFGQGTKLEIKR
notes: also called scFv 9
B9: human synthetic scFv fragment 1 (scFv)
scFv: EVQLLESGGGLVQPGGSLRLSCAASGFTFSSYAMSWVRQAPGKGLEWVSAISGSGGSTYYASVKGRFTISRDNSKNTLYLQMNSLRAEDTAVYYCARHYYNWASGYFDYWGQGTLVTVSSGGGGSGGGGSGGGGSDIQMTQSPSSLSASVGDRVTITCRASQSISSYLNWYQQKPGKAPKLLIYAASSLQSGVPSRFSGSGSGTDFTLTISSLQPEDFATYYCQQGWYPPTFGQGTKLEIKR
notes: also called scFv 1
B10: human synthetic scFv fragment 3 (scFv)
scFv: EVQLLESGGGLVQPGGSLRLSCAASGFTFSSYAMSWVRQAPGKGLEWVSAISGSGGSTYYASVKGRFTISRDNSKNTLYLQMNSLRAEDTAVYYCARVYYHYYYYGSFDYWGQGTLVTVSSGGGGSGGGGSGGGGSDIQMTQSPSSLSASVGDRVTITCRASQSISSYLNWYQQKPGKAPKLLIYAASSLQSGVPSRFSGSGSGTDFTLTISSLQPEDFATYYCQQSTHLSTFGQGTKLEIKR
notes: also called scFv 3
B11: human synthetic scFv fragment 7 (scFv)
scFv: EVQLLESGGGLVQPGGSLRLSCAASGFTFSSYAMSWVRQAPGKGLEWVSAISGSGGSTYYASVKGRFTISRDNSKNTLYLQMNSLRAEDTAVYYCARYTHSTYGYRLDYWGQGTLVTVSSGGGGSGGGGSGGGGSDIQMTQSPSSLSASVGDRVTITCRASQSISSYLNWYQQKPGKAPKLLIYAASSLQSGVPSRFSGSGSGTDFTLTISSLQPEDFATYYCQQDAYHPPTFGQGTKLEIKR
notes: also called scFv 7; AK7

This test concerns the target T1, purified prostasomes (from human seminal plasma) (human).
T1 construct: Not a single protein: exosome-type vesicle purified from seminal plasma
Description: direct ELISA, coated purified prostasomes, biotinylated scFv at 4 µg/mL, streptavidin-HRP. Here is the method: The wells were washed three times with PBS containing 0.05% Tween 20. Addition of biotinylated human synthetic scFv fragments 1:250 in row A were made and then 1:5 dilutions downwards. The plates were then incubated for 2 h at room temperature and then washed three times with PBS containing 0.05% Tween 20. 100 μL Streptavidine-HRP was added to the wells and incubated for 2 h at room temperature. The wells were washed three times with PBS containing 0.05% Tween 20. 100 μL TMB (tetramethylbenzidine) substrate was added to the wells, and incubated for 20 min and 25 μL 1 M H2SO4 was added to the plate. The plate was read at 450 nm.
Seminal plasma was collected from the Reproduction Centre at Akademiska Hospital (Uppsala, Sweden) following previously described routines (Ronquist, G. K., et al., Prostasomal DNA characterization and transfer into human sperm. Mol Reprod Dev, 2011. 78 (7): p. 467-76). The seminal plasma was thawed and centrifuged at 3,000 g for 12 min. The supernatants were collected and centrifuged at 10,000 g for 30 min. The supernatants were then transferred to new tubes and ultra-centrifuged using a 90Ti rotor (Beckman Coulter, Brea, Calif., USA) at 100,000 g for 2 h. The pellets were resuspended in 0.02 M NaH2PO4, 0.15 M NaCl, pH 7.2 (PBS), overnight at 4° C. The resuspended pellets were then loaded on a chromatography column (XK 60/70, GE Healthcare, Uppsala, Sweden) packed with Superdex 200 gel. Fractions were collected at a flow rate of 5 mL/h. The fractions were then measured with a spectrophotometer where peaks at both 260 nm (nucleic acid) and 280 nm (proteins) corresponds to prostasomes. These fractions were collected and pooled and ultra-centrifuged at 100,000 g. The obtained pellet was resuspended in PBS. The purified prostasomes (1 mg/ml were diluted 1:250 in PBS and 100 μL were added per well in a F96 Polysorb NUNC Immunoplate (Thermo Fisher Scientific, Uppsala, Sweden). The plates were incubated for 2 h at ambient temperature and then washed three times with PBS containing 0.05% Tween 20 (P1379, Sigma-Aldrich). 120 μL 1% bovine serum albumin (BSA, Sigma-Aldrich) in PBS were added to the wells and the plate was incubated over night at ambient temperature. The plate was washed three times with PBS containing 0.05% Tween 20. 100 μL of the biotinylated monoclonal antibodies were added in dilution of 4 μg/mL in PBS to the wells.
In general terms: An ELISA detects its analyte on a solid surface through an enzyme-linked reagent.
The molecule B1 yielded an Absorbance of 0.066 absorbance at 450 nm. The figure for B2 is 1.64 absorbance at 450 nm; for B3 it is 0.556 absorbance at 450 nm.

In the case of B4, the Absorbance turned out to be 0.653 absorbance at 450 nm. For B5 the value was 0.954 absorbance at 450 nm; for B6, 0.394 absorbance at 450 nm; for B7, 0.617 absorbance at 450 nm. On to B8, for which the Absorbance was 1.29 absorbance at 450 nm.

The molecule B9 gave an Absorbance of 0.643 absorbance at 450 nm. The figure for B10 is 0.903 absorbance at 450 nm; for B11 it is 1.36 absorbance at 450 nm.
